Here are results for 1 substance from PMC5314338, “Structure of a LOV protein in apo-state and implications for construction of LOV-based optical tools” (Scientific Reports, 2017).

The target in the experiment is W619_1-LOV, short LOV protein from Pseudomonas putida (Pseudomonas putida). Nature of the experiment: crystal structure; apo-state; sitting drops grown in the dark, 100 mM MES pH 6.0-6.3, 1 M ammonium sulfate, 14 °C; space group I4(1), two molecules per asymmetric unit.

“W619_1-LOV, short LOV protein from Pseudomonas putida (natural protein)” gave a stoichiometry N of 2.
